Key:
[1] = biological target: T1, human CD28-ECD (extracellular domain) recombinant fragment containing a C-terminal Avi tag, His6 tag and Fc … (human, site specifically biotinylated using BirA (Avi tag) in the ELISA of Example 2.1); test: titration ELISA
T1 construct: also called CD28-Fc; CD28-Fc fusion protein

[2] = biological target: T2, human CD28 expressed on primary human T cells (human, UniProt P10747 19-220); test: flow cytometry on primary human T cells, 50 nM antibody
T2 construct: whole, on cells; also called primary human T cells expressing CD28
Method: Cells were first blocked for 30 minutes in FACS buffer (PBS, 2% FBS and 2 mM EDTA). […] Zombie near infrared (NIR) was used to discriminate live from dead cells.

[3] = biological target: T3, murine CD28 on the surface of primary mouse T cells (mouse, UniProt P31041 20-218); test: flow cytometry on primary mouse T cells, 50 nM antibody
T3 construct: whole, on cells

murine CD28 Fc = biological target: T4, murine CD28 Fc (mouse, UniProt P31041 20-150); test: titration ELISA, His6-tagged CD28-ECD on NiNTA plates, FITC-conjugated antibody
T4 construct: also called murine CD28 ECD; mouse CD28 Fc; not shown: His6 tag and Fc part of the murine construct

[4] = biological target: T5, human CTLA-4 protein containing His6 Tag (SinoBiological, Cat: 11159-H08H) (human, UniProt P16410 36-162); test: titration ELISA, His6-tagged human CTLA-4 on NiNTA plates, FITC-conjugated antibody
T5 construct: Bought protein

[5] = biological target: T3, murine CD28 on the surface of primary …; test: flow cytometry on primary mouse T cells
Method: Cells were first blocked for 30 minutes in FACS buffer (PBS, 2% FBS and 2 mM EDTA). […] Zombie NIR was used to discriminate live from dead cells.

T1 sequence (chain, as listed by the source limits assumed): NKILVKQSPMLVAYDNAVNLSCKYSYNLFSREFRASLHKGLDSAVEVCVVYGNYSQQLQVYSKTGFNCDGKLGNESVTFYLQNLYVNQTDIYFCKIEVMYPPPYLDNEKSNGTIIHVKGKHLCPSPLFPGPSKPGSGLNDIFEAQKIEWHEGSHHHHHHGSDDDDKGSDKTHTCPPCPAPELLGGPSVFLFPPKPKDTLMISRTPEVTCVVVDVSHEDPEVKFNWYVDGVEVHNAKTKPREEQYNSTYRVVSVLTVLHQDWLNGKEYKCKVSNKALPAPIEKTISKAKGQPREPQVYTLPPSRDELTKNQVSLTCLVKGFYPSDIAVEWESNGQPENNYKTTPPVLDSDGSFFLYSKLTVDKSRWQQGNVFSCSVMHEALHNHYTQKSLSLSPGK

B1: AE2P antibody in IgG4 format (antibody, V domains shown)
VH: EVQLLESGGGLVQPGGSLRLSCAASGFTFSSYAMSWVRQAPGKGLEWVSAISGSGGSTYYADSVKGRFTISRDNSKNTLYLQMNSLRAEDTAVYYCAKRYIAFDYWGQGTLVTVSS
VL: DIQMTQSPSSLSASVGDRVTITCRASQSISSYLNWYQQKPGKAPKLLIYAASSLQSGVPSRFSGSGSGTDFTLTISSLQPEDFATYYCQQGGMPPDTFGQGTKVEIKR
notes: unconjugated in flow cytometry; also called AE2P IgG4; IgG4 (AE2P)
binding result [1]: binds | binding result [2]: binds | binding result [3]: binds | binding result (murine CD28 Fc): binds | binding result [4]: binds

B2: anti-human CEA IgG/AE2P (scFv)2 bispecific antibody in IgG-(scFv)2 (2+2) format (format 1, FIG. 13) (bispecific antibody)
heavy: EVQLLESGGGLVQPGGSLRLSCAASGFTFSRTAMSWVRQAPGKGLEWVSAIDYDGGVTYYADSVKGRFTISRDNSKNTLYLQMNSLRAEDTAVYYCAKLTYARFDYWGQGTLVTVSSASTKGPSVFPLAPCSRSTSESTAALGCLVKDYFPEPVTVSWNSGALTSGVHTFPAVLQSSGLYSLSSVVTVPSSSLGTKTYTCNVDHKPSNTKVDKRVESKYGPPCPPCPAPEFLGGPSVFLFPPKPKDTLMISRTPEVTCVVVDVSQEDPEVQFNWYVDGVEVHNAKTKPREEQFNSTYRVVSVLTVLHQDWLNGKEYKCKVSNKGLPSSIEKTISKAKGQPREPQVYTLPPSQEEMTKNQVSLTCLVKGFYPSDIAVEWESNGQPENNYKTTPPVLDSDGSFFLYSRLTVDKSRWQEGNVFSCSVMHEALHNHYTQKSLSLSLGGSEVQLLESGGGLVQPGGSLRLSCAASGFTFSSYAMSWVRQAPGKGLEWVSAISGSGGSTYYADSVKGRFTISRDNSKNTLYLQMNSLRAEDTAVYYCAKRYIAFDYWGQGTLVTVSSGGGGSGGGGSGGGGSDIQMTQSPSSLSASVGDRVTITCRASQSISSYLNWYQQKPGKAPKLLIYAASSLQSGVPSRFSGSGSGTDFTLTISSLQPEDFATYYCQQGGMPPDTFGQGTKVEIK
light: EIVLTQSPGTLSLSPGERATLSCRASQSVSQNHLAWYQQKPGQAPRLLIYLASRRHTGIPDRFSGSGSGTDFTLTISRLEPEDFAVYYCQQSGRVPWTFGQGTKVEIKRTVAAPSVFIFPPSDEQLKSGTASVVCLLNNFYPREAKVQWKVDNALQSGNSQESVTEQDSKDSTYSLSSTLTLSKADYEKHKVYACEVTHQGLSSPVTKSFNRGEC
notes: also called anti-human CEA IgG/anti-CD28 (scFv)2 bispecific antibody
binding result [3]: binds

B3: TGN1412 IgG4 (antibody, V domains shown)
VH: QVQLVQSGAEVKKPGASVKVSCKASGYTFTSYYIHWVRQAPGQGLEWIGCIYPGNVNTNYNEKFKDRATLTVDTSISTAYMELSRLRSDDTAVYFCTRSHYGLDWNFDVWGQGTTVTVSS
VL: not shown
notes: U.S. Pat. No. 8,709,414'; also called TGN1412 antibody in IgG4 format
binding result [5]: no binding (tested: 50 nM) | binding result (murine CD28 Fc): no binding | binding result [4]: no binding

From US20250368738A1 (PHILOGEN S P A, published 2025)
